Values of other authors in PMC8246649 (Biochemistry, 2021).

Assays:
UNC119B = UNC119B (Homo sapiens, UniProt A6NIH7); conditions: read-out: Reported Kd of release factor to UNC119B
UNC119A = UNC119A (Homo sapiens, UniProt Q13432); conditions: read-out: Reported Kd of release factor to UNC119A

UNC119B, sequence (A6NIH7 whole entry): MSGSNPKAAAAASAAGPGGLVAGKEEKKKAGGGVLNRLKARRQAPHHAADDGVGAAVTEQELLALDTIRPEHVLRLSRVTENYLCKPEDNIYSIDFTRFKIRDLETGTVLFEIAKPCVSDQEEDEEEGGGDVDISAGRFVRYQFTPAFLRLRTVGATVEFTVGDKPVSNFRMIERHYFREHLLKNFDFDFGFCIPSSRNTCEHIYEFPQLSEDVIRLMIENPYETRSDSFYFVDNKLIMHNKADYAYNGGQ

Substance	Kd (UNC119B)	Kd (UNC119A)
ARL2: ADP ribosylation factor-like protein 2, release factor of UNC119 cargo	216 nM	159 nM
ARL3: ADP ribosylation factor-like protein 3, release factor of UNC119 cargo	33 nM	
